From paper PMC9195047 (The Journal of Experimental Medicine, 2022) come the findings set out here.

The target of assay [1] is CHIKV 181/25 structural proteins on infected Vero cells (Chikungunya virus, 181/25, UniProt Q88628, strain). Kind of assay: flow cytometry on cells.
The target of assay [2] is VEEV TC-83 structural proteins (capsid-p62-6K-E1) displayed on Expi293F cells (Venezuelan equine encephalitis virus, …, UniProt P05674, strain). The assay is described as follows: flow cytometry on cells.

B1: hVEEV-63 (human anti-VEEV monoclonal antibody, IgG1) (antibody, V domains shown)
VH: QVQLVQSGAEVKKPGASVKVSCKSSGYTFTNYIIHWVRQAPGQRLEWMGWINAGNGNTKYSQKFQGRISVTRDTSASAAYMELSSLKSEDTALYYCATLQMDYGGNGDLDYWGQGTLVTVSS
VL: YELTQPPSVSVSPGQTARITCSGDALPKQYVYWYQQKPGQAPVLVIYKDSERPSGIPERFSGSSSGTTVTLTISGVQAEDDADYYCQAADSSNTEYVFGTGTKVTVL
With B1, the binding result was “no binding (tested: 10 µg/ml)” in assay [1] and “binds” in assay [2].
